B1: recombinant human GST-tagged RIL (natural protein)
chain: MPHSVTLRGPSPWGFRLVGGRDFSAPLTISRVHAGSKAALAALCPGDLIQAINGESTELMTHLEAQNRIKGCHDHLTLSVSRPEGRSWPSAPDDSKAQAHRIHIDPEIQDGSPTTSRRPSGTGTGPEDGRPSLGSPYGQPPRFPVPHNGSSEATLPAQMSTLHVSPPPSADPARGLPRSRDCRVDLGSEVYRMLREPAEPVAAEPKQSGSFRYLQGMLEAGEGGDWPGPGGPRNLKPTASKLGAPLSGLQGLPECTRCGHGIVGTIVKARDKLYHPECFMCSDCGLNLKQRGYFFLDERLYCESHAKARVKPPEGYDVVAVYPNAKVELV

How the values were obtained:
[1] = molecular target: Baculovirus-produced recombinant purified active human Src (kinase assays) (human) (UniProt P12931); test: kinase activity titration (filter-binding Src kinase assay, kinetic fit)
[2] = molecular target: Baculovirus-produced recombinant purified active human Src (kinase assays) (human) (UniProt P12931); test: kinase activity titration (filter-binding Src kinase assay, kinetic fit); apparent; increasing RIL alone titrated in the Src kinase reaction with peptide and ATP substrates

| Molecule | Kd [1] [nM] | Kd [2] [nM] | Kd RIL in the presence of F4 (Δ225–230) [1] [nM] | Kd RIL in the presence of F6 (Δ221–230) [1] [nM] |
| --- | --- | --- | --- | --- |
| NS1 wild type (230 aa) from A/Turkey/Italy/977/99 H7N1 (F3) (natural protein) | 400 | – | – | – |
| B1 | – | 80 | 230 | 470 |

— PMC3215730
